The values below come from paper PMC3205929 (The Journal of neuroscience : the official journal of the …, 2011).

The experiment has as its target DAT 587–590(4A) mutant expressed in PC12 cells (human, UniProt Q01959 1-620, 587–590(4A)). In words: co-IP.

B1: Rin, endogenous in PC12 cells (natural protein, rat (endogenous in PC12), UniProt Q5BJQ5 1-217, looked up)
chain: MEAENEAHCCPGSSSGGSREYKVVMLGAGGVGKSAVTMQFISHQFPDYHDPTIEDAYKTQVRIDNEPAYLDILDTAGQAEFTAMREQYMRGGEGFIICYSVTDRQSFQEAAKFKELIFQVRHTYEIPLVLVGNKIDLEQFRQVSTEEGMTLARDYNCAFFETSAALRFGIDDAFQGLVREIRRKESMLSLVERKLKRKDSLWKKIKASLKKKRENMI
On to B1, for which the “basal interaction with Rin, % of wild type DAT” value is 300 % of wild type DAT/Rin interactions.
